We go through two molecules from paper PMC11187117, “Structure of the endosomal CORVET tethering complex” (Nature Communications, 2024).

T1: Vps18 (CORVET and HOPS core subunit) (yeast, UniProt P27801 1-918)
T1 construct: Vps18, yeast, core subunit shared by CORVET and HOPS
T1 sequence: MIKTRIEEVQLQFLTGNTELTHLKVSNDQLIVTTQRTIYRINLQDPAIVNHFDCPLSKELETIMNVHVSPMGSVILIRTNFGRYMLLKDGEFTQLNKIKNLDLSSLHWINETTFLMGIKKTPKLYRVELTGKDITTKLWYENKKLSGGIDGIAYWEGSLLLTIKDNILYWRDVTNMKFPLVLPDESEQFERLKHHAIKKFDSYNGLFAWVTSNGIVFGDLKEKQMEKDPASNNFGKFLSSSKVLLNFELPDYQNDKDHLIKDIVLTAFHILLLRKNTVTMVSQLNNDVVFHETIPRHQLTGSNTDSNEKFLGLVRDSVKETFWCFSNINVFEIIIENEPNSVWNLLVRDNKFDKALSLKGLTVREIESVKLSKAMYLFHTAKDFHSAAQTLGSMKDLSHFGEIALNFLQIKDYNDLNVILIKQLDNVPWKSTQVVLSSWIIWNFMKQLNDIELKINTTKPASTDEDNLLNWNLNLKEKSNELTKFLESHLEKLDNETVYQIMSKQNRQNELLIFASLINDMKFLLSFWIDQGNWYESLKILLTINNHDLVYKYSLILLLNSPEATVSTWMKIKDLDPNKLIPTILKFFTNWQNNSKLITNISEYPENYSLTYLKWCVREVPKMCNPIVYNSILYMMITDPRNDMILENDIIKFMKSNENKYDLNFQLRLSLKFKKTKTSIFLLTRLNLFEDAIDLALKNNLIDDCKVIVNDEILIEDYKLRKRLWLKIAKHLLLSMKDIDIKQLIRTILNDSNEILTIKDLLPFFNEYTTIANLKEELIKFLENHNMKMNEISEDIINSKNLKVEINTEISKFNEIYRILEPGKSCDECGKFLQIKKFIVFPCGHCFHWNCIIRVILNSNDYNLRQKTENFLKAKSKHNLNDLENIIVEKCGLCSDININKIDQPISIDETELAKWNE

T2: Vps8 with 3xFLAG tag (CORVET subunit) (yeast, UniProt P39702 1-1274)
T2 construct: UniProt P39702 printed for its AlphaFold model
T2 sequence: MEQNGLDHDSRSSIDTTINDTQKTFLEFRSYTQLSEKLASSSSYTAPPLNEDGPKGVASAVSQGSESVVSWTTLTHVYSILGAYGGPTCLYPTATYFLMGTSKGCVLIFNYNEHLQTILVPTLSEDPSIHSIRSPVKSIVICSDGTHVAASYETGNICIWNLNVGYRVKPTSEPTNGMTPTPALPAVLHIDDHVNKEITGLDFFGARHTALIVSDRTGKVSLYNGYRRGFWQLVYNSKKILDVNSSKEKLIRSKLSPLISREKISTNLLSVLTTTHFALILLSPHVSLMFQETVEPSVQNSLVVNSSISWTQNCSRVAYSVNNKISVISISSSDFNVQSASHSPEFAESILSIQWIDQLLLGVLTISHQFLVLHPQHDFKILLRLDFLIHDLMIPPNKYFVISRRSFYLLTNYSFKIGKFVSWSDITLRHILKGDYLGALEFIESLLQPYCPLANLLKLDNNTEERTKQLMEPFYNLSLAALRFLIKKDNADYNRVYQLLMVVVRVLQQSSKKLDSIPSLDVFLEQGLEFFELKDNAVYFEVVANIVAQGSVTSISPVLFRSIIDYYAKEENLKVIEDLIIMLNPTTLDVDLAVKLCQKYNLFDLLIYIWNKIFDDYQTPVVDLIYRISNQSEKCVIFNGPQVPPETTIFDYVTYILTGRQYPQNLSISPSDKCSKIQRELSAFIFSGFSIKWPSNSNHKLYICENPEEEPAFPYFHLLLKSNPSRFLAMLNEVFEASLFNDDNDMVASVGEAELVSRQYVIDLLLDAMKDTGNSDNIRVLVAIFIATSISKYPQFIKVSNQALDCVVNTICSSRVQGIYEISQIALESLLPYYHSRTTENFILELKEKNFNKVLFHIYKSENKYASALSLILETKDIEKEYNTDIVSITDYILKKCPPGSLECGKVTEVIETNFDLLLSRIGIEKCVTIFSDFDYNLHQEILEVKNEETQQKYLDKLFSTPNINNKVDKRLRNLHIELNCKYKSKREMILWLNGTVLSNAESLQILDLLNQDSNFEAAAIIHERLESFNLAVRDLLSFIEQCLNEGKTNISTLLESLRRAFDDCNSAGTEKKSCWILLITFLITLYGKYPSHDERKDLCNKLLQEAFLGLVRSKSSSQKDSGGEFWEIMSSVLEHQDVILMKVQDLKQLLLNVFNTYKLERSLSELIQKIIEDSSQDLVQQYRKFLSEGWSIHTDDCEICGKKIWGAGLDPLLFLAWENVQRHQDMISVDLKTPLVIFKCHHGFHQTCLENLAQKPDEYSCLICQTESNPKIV

B1: Vps33 (CORVET and HOPS subunit, SM protein of the SNARE-binding module) (natural protein, yeast)
chain: MNRFWNTKKFSLTNADGLCATLNEISQNDEVLVVQPSVLPVLNSLLTFQDLTQSTPVRKITLLDDQLSDDLPSALGSVPQMDLIFLIDVRTSLRLPPQLLDAAQKHNLSSLHIIYCRWKPSFQNTLEDTEQWQKDGFDLNSKKTHFPNVIESQLKELSNEYTLYPWDLLPFPQIDENVLLTHSLYNMENVNMYYPNLRSLQSATESILVDDMVNSLQSLIFETNSIITNVVSIGNLSKRCSHLLKKRIDEHQTENDLFIKGTLYGERTNCGLEMDLIILERNTDPITPLLTQLTYAGILDDLYEFNSGIKIKEKDMNFNYKEDKIWNDLKFLNFGSIGPQLNKLAKELQTQYDTRHKAESVHEIKEFVDSLGSLQQRQAFLKNHTTLSSDVLKVVETEEYGSFNKILELELEILMGNTLNNDIEDIILELQYQYEVDQKKILRLICLLSLCKNSLREKDYEYLRTFMIDSWGIEKCFQLESLAELGFFTSKTGKTDLHITTSKSTRLQKEYRYISQWFNTVPIEDEHAADKITNENDDFSEATFAYSGVVPLTMRLVQMLYDRSILFHNYSSQQPFILSREPRVSQTEDLIEQLYGDSHAIEESIWVPGTITKKINASIKSNNRRSIDGSNGTFHAAEDIALVVFLGGVTMGEIAIMKHLQKILGKKGINKRFIIIADGLINGTRIMNSIS
notes: Vps33, yeast, subunit shared by CORVET and HOPS
B2: Vps16 (CORVET and HOPS subunit, SNARE-binding module) (natural protein, yeast)
chain: MKNPSFDWERLKDVFYRSRAIGELKWPTQYEEFKCALSLTVIAVEIQDFIQVYNYFGQLLGKINLQRIHEDIIKFEFDKDEKLILVTKSSIKIVKGWSPLTIESVPLQDPTIDTIWDYHNGIMLLAKSRDIYKLNGNEWELLYENKDKKYNLLTKNHWSCNDDSIILLDVDHVYQVSTSNGALLKLITDSSWHKVTISSRGFICLYNMKDNKLQIFRDPARILMEHNLDSTPDDICWCGNDTVACSFEDEIKLYGPDGLYVTFWYPFTVTNLRAEVDGLKVITTEKIYFLSRVQPQTSNIFRIGSTEPGAMLVDSFSLLEDHAPKAIEILKNFVLEKGVLDCIAAAIDEFEPKLQKMLLNAASYGKASLQYKSFDASIFVNACNTIKLLNCFRSFGIFLTVEEYRCISLKGVIDRLLKYHRYYECIQICKLANERFLLGYVFTEWAKDKIKGSPDMEDDELLDKIKSRLSVIDMTDTLQMVAVAKVAYLEGRFQLSRNLALLEKNEEARIEQLYNLDDDSIALKECIKVQNYSLTISLLIALSKKLTNSQLTKLLIIDMFNNPLYLYYMRMDKAYLYDFYRQTDRFIDLAHVLLQQGKEQQSLHSFLPQIKDLYSQVQNSEVVNNTIEQLQRQEKLWIYQESLGKRFAISFTNMTLDQTLSKLIETGQDKQVKEIVKKFKISEKKLYHLKCKTLVEAKKFDELLQFAQSRKSPIGYMPFYTYLKSRGHMDKASPYVNMIPGLSYQEKKKLYVECRGFRDAIQLAGKEKDIPGLKEIYNIIPPNEPELKALANETMSRI
notes: Vps16, yeast, subunit shared by CORVET and HOPS

Holding throughout (assay): cryo-EM structure; single-particle cryo-EM of the hexameric CORVET co-expressed in yeast and purified by 3xFLAG on Vps8 and SEC; about 0.8 mg/ml; consensus map 4.6 Å, local refinements to 3.8 Å
Conditions in all cases: both partners purified

The target of test [1] is T1, Vps18 (CORVET and HOPS core subunit).
The target of test [2] is B2.
Test [3] deals with T2, Vps8 with 3xFLAG tag (CORVET subunit).

B1: the binding result in test [1] and in test [2] was “binds” throughout.

As for B2, the binding result in test [3] and in test [1] was “binds” throughout.
